Numbering of substitutions follows the chain as printed. Values belong to the binder of their own block, whether it stands above or below them.
Legend:
Guinea pig NOTUM = target: T1, Guinea pig NOTUM (guinea pig, UniProt Q6P988 21-496 (human entry)); test: ELISA
T1 construct: Expressed by transient transfection
T1 chain: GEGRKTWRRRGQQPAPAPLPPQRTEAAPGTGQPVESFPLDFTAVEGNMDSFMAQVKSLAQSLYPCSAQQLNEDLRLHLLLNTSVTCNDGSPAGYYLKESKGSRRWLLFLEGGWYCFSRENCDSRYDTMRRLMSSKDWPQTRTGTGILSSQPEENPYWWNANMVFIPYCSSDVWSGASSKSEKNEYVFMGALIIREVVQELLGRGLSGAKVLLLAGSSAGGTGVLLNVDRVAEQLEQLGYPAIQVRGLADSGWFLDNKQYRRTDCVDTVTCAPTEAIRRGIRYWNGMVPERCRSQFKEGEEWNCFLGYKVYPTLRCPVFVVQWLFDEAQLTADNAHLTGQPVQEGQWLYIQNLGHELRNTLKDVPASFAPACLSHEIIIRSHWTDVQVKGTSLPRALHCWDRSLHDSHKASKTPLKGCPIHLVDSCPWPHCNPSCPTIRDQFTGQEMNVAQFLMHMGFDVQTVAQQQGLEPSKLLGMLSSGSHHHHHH

Human NOTUM [1] = target: T2, Human NOTUM (human, UniProt Q6P988 20-496); test: cell-based or functional assay
T2 sequence: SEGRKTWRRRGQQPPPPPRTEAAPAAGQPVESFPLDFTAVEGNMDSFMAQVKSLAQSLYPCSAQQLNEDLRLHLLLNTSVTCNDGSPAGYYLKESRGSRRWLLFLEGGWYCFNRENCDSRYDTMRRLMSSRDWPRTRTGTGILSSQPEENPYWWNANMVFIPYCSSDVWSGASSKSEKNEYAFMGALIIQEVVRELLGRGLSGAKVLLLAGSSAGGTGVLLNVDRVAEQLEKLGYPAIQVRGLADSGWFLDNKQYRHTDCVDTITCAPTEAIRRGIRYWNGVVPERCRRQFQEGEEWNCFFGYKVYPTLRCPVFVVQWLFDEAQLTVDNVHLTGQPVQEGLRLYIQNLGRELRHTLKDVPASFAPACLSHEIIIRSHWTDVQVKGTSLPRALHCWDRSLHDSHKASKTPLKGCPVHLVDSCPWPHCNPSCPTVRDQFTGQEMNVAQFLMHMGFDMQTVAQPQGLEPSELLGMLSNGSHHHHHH

Human NOTUM [2] = target: T2, Human NOTUM; test: Biacore 3000
Experimental: Binding affinities of certain anti-NOTUM MAbs was determined using a Biacore 3000. In order to obtain meaningful affinity values for binding to multimeric […] NOTUM protein, antibody FAb fragments were generated by digestion of whole IgG with the protease Ficin, followed by removal of undigested IgG and Fc fragments by protein A affinity chromatography. Affinity values for binding of FAbs and whole IgG to human NOTUM corresponded, and their affinity values were in the single to low double digit nM range, as shown in Table 3.

Mouse NOTUM = target: T3, Mouse NOTUM (mouse, UniProt Q8R116 20-503); test: ELISA (column 'Mouse NOTUM binding')
T3 construct: also called recombinant mouse NOTUM
T3 sequence: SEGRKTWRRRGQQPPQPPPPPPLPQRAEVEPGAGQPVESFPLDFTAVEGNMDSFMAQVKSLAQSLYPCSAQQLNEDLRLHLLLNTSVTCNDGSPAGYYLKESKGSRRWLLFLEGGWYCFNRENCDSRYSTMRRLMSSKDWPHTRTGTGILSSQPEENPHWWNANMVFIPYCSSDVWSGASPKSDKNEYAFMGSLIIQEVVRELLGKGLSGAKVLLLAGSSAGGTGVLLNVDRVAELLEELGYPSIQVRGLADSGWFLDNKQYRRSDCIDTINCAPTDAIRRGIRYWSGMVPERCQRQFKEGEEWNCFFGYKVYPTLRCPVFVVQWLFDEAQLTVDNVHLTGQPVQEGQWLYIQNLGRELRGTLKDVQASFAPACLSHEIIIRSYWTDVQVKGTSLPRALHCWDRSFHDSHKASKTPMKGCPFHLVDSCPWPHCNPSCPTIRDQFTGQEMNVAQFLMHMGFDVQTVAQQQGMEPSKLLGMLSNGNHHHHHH

binding result (Guinea pig NOTUM): binds
OPTS IC50 (nM; human NOTUM) (Human NOTUM [1]): 6.44 nM
Wnt signaling IC50 (nM; human NOTUM) (Human NOTUM [1]): 5.71 nM
Kd (Human NOTUM [2]): 1.42 nM
kon (Human NOTUM [2]): 257000 M⁻¹ s⁻¹
binding result (Mouse NOTUM): no binding
B1: MAb 1.802 (antibody, V domains shown)
VH: EVQLVESGGGLVKPGGSLKLSCAASGFTFSDYGMHWFRQAPEKGLEWVAYISSGSRTVYYADTVKGRFTISRDNAKNTLSLQMTSLRSEDTAMYYCARKHYNGGYFDVWGTGTTVTVSS
VL: DIVLTQSPASLAVSLGQRATISCRASKIVSTSGYSYMHWYQQKPGQPPKLLIYLASNLESGVPARFSGSGSGTDFTLNIHPVEEEDAATYYCQHSRELPPTFGSGTKLEIKR
notes: Mouse monoclonal antibody from Campaign 1 (raised against human NOTUM), IgG1

binding result (Guinea pig NOTUM): binds
OPTS IC50 (nM; human NOTUM) (Human NOTUM [1]): 7.62 nM
Wnt signaling IC50 (nM; human NOTUM) (Human NOTUM [1]): 6.88 nM
binding result (Mouse NOTUM): no binding
B2: MAb 1.815 (antibody, IgG1, V domains shown)
VH: DVQLLESGGGLVQPGGSRKLSCAASGFTFSDFGMHWVRQAPEKGLEWVAYSSSGGTTVYYADTVKGRLTLSRDNSKNTLFLEMTSLRSEDTAMYYCARASYDGGYFDCWGQGTSLTVSS
VL: B1 VL with I28S, M37I, N57D, T73A, D74A, Q93H, P100F
notes: Mouse monoclonal antibody from Campaign 1, IgG1

binding result (Guinea pig NOTUM): binds
OPTS IC50 (nM; human NOTUM) (Human NOTUM [1]): 10.1 nM
Wnt signaling IC50 (nM; human NOTUM) (Human NOTUM [1]): 1.7 nM
binding result (Mouse NOTUM): no binding
B3: MAb 1.846 (antibody, IgG2b, V domains shown)
VH: B1 VH with G10D, F37L, R56T, V58L, Y59S, D62N, V64M, N77K, M93I, H100N
VL: B1 VL with A12V, I28S, T31E, E85G, A88T, E97V
notes: Mouse monoclonal antibody from Campaign 1, IgG2b
